Reference: the supplement of paper PMC10567573

B1: WDFY2 (parent)
chain: FWNFKQMWDSKKIGLRQHHCRKCG
B2: CCND1 (parent)
chain: PEAEENKQIIRKHAQTFVALCATD
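Further: lentivirally expressed fusions sorted by FACS into six bins by GFP to DsRed ratio, PSI derived from sequencing read proportions per bin multiplied by bin number.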

Variants of: B1
Assay: protein stability index of a GFP-peptide fusion (GPS, HEK-293T) (PSI 1-6); higher = more stable
Settings: c terminus: a fixed tail appended
Variant M7T has a protein stability index of 2.11. For M7R, the protein stability index was 2.33. M7L gave a protein stability index of 2. Work on K12A yielded a protein stability index of 1.68. Work on K12V yielded a protein stability index of 2.42. Work on K12W yielded a protein stability index of 2.3. K12M showed a protein stability index of 1.73. K12L showed a protein stability index of 1.89. For K12R, the protein stability index was 1.71. Work on K12G yielded a protein stability index of 1.58. In the case of K12P, the protein stability index is reported as 2.03. K12F showed a protein stability index of 1.84. Variant K12E has a protein stability index of 2.05. In the case of K12Q, the protein stability index is reported as 2.1. Variant K12H has a protein stability index of 2.01. Work on K12D yielded a protein stability index of 1.88. With K12S the protein stability index was 2.62. Work on K12I yielded a protein stability index of 2.06. Work on K12N yielded a protein stability index of 1.85. Work on K12T yielded a protein stability index of 2.08. In the case of K12C, the protein stability index is reported as 2.79. For K12Y, the protein stability index was 1.53. Variant I13D has a protein stability index of 2.55. I13E gave a protein stability index of 2.28. With I13S the protein stability index was 2.54. I13Q showed a protein stability index of 1.73. For I13T, the protein stability index was 1.66. With I13C the protein stability index was 2.72. Work on I13A yielded a protein stability index of 2.52. I13F showed a protein stability index of 2.15. Variant I13N has a protein stability index of 2.42. With I13M the protein stability index was 2.29. With I13H the protein stability index was 1.81. Work on I13K yielded a protein stability index of 1.99. With I13V the protein stability index was 2.02. Variant I13Y has a protein stability index of 2.25. Work on I13W yielded a protein stability index of 1.67. Work on I13R yielded a protein stability index of 2.01. I13P showed a protein stability index of 1.86. In the case of I13G, the protein stability index is reported as 1.99. In the case of Q6A, the protein stability index is reported as 1.56. Work on Q6L yielded a protein stability index of 2.03. For Q6R, the protein stability index was 1.79. Q6F showed a protein stability index of 1.53. Variant Q6T has a protein stability index of 1.82. Q6Y gave a protein stability index of 1.6. With Q6H the protein stability index was 2.27. Q6W gave a protein stability index of 1.28. Variant Q6V has a protein stability index of 1.51. Work on Q6S yielded a protein stability index of 1.85. Q6G gave a protein stability index of 2.79. In the case of Q6N, the protein stability index is reported as 2.27. With Q6I the protein stability index was 1.68. In the case of Q6E, the protein stability index is reported as 1.89. With Q6C the protein stability index was 2.34. Variant Q6M has a protein stability index of 1.93. In the case of Q6K, the protein stability index is reported as 2.44. In the case of Q6D, the protein stability index is reported as 1.91. For Q6P, the protein stability index was 2.04. With F4D the protein stability index was 2.27. Variant F4L has a protein stability index of 1.94. F4A gave a protein stability index of 1.61. With F4C the protein stability index was 2.36. With F4Q the protein stability index was 2.41. F4W gave a protein stability index of 2.26. F4Y showed a protein stability index of 1.99. Variant F4S has a protein stability index of 2.12. Work on F4R yielded a protein stability index of 2.33. Work on F4V yielded a protein stability index of 2.33. Work on F4E yielded a protein stability index of 2.39. F4N gave a protein stability index of 2.29. Work on F4M yielded a protein stability index of 2.26. In the case of F4I, the protein stability index is reported as 1.51. Work on F4T yielded a protein stability index of 2.3. Work on F4G yielded a protein stability index of 2.23. F4H gave a protein stability index of 2.47. F4K gave a protein stability index of 1.46. For F4P, the protein stability index was 1.93. With S10P the protein stability index was 2.17. With S10R the protein stability index was 1.53. S10K gave a protein stability index of 2.04. Work on S10Q yielded a protein stability index of 2.65. S10H gave a protein stability index of 2.55. Work on S10C yielded a protein stability index of 1.94. Work on S10I yielded a protein stability index of 2.94. For S10F, the protein stability index was 1.72. S10E gave a protein stability index of 1.72. Variant S10V has a protein stability index of 1.78. In the case of S10A, the protein stability index is reported as 1.32. In the case of S10M, the protein stability index is reported as 1.76. Variant S10L has a protein stability index of 1.67. S10D showed a protein stability index of 1.75. With S10Y the protein stability index was 1.72. Work on S10T yielded a protein stability index of 1.73.

Variants of: B2
Assay: as above
Settings: c terminus: a fixed tail appended
In the case of A3S, the protein stability index is reported as 2.46. For A3M, the protein stability index was 2.81. For T23A, the protein stability index was 2.87. For T23E, the protein stability index was 2.21. With T23W the protein stability index was 2.63. Variant T23P has a protein stability index of 3.07. T23M gave a protein stability index of 2.94. Variant T23D has a protein stability index of 3.22. Variant T23G has a protein stability index of 2.64. Variant C21D has a protein stability index of 5.22. C21Q showed a protein stability index of 4.95. In the case of C21W, the protein stability index is reported as 3.59. C21E showed a protein stability index of 4.9. In the case of K12E, the protein stability index is reported as 4.58. K12V showed a protein stability index of 3.13. K12L gave a protein stability index of 2.77. E5A showed a protein stability index of 2.05. In the case of E5M, the protein stability index is reported as 2.99. For E5D, the protein stability index was 2.93. E5I showed a protein stability index of 2.05. In the case of A14Q, the protein stability index is reported as 2.28. A14C showed a protein stability index of 2.72. In the case of A14T, the protein stability index is reported as 2.33. Work on A14M yielded a protein stability index of 2.97. In the case of I10G, the protein stability index is reported as 2.53. I10T showed a protein stability index of 3.04. K7V showed a protein stability index of 2.54. Variant K7C has a protein stability index of 2.92. Variant K7T has a protein stability index of 2.64. K7R gave a protein stability index of 3.25. In the case of K7G, the protein stability index is reported as 3.26. Work on V18C yielded a protein stability index of 3.72. Work on V18F yielded a protein stability index of 4.28. For Q15H, the protein stability index was 2.97. With Q15S the protein stability index was 3.52. In the case of H13W, the protein stability index is reported as 2.25. In the case of H13P, the protein stability index is reported as 3.17. Work on H13C yielded a protein stability index of 2.65. R11P showed a protein stability index of 3.28. E2I gave a protein stability index of 2.27. Work on I9L yielded a protein stability index of 3.36. For I9P, the protein stability index was 3. I9R gave a protein stability index of 2.17. I9Q gave a protein stability index of 2.81. P1W gave a protein stability index of 3.02. P1N showed a protein stability index of 2.52. In the case of P1K, the protein stability index is reported as 2.07. In the case of A19F, the protein stability index is reported as 3.08. F17N gave a protein stability index of 5.41. F17D gave a protein stability index of 5.61. Variant F17A has a protein stability index of 4.99. F17C showed a protein stability index of 4.84. For L20N, the protein stability index was 3.84. Variant L20G has a protein stability index of 4.71. Variant L20R has a protein stability index of 2.09. L20S gave a protein stability index of 4.43. Work on L20A yielded a protein stability index of 3.3. For L20I, the protein stability index was 3.33. For D24S, the protein stability index was 3.9. Variant D24H has a protein stability index of 2.77. For A22S, the protein stability index was 3.19. A22N gave a protein stability index of 4.43. Variant A22M has a protein stability index of 2.67. In the case of A22R, the protein stability index is reported as 3.16. Work on A22T yielded a protein stability index of 2.87. For N6V, the protein stability index was 1.85. N6Q showed a protein stability index of 2.59. Q8F gave a protein stability index of 2.24. Q8P showed a protein stability index of 1.95. Variant Q8W has a protein stability index of 2.05. Variant E4R has a protein stability index of 2.33. Work on E4Y yielded a protein stability index of 2.08. T16V gave a protein stability index of 3.85.
